Values of other authors, collected in publication PMC7570734.
Read-outs that look alike come from different tables or passages of the source.

Legend:
[1] = target: alpha-factor (Saccharomyces cerevisiae) (UniProt P01149)
[2] = target: alpha-factor (Saccharomyces cerevisiae) (UniProt P01149); remark: listed apart in the source

Kd [1]: > 150 nM | Kd [2]: 17 nM
Substance: Ste2p (from UniProt D6VTK4)
